In patent US20240018502A1:

B1: MTSP-1 protease domain Q38H/I41S/D96G/ins97aG/C122S/G151N/Q192A (enzyme)
chain: VVGGTDADEGEWPWQVSLHALGHGHSCGASLISPNWLVSAAHCYIDDRGFRYSDPTQWTAFLGLHDQSQRSAPGVQERRLKRIISHPFFNGFGTFDYDIALLELEKPAEYSSMVRPISLPDASHVFPAGKAIWVTGWGHTQYGGTNALILQKGEIRVINQTTCENLLPQQITPRMMCVGFLSGGVDSCAGDSGGPLSSVEADGRIFQAGVVSWGDGCAQRNKPGVYTRLPLFRDWIKENTGV
B2: MTSP-1 protease domain I41S/Y59F/F97S/ins97aV/S116Y/C122S/Q192G/D217V (enzyme)
chain: VVGGTDADEGEWPWQVSLHALGQGHSCGASLISPNWLVSAAHCFIDDRGFRYSDPTQWTAFLGLHDQSQRSAPGVQERRLKRIISHPFFNDSVTFDYDIALLELEKPAEYSYMVRPISLPDASHVFPAGKAIWVTGWGHTQYGGTGALILQKGEIRVINQTTCENLLPQQITPRMMCVGFLSGGVDSCGGDSGGPLSSVEADGRIFQAGVVSWGVGCAQRNKPGVYTRLPLFRDWIKENTGV
B3: MTSP-1 Q38H/I41S/D60bT/F60eS/Y60gW/D96K/F97G/ins97aV/F99L/C122S/G151H/Q175L/Q192D (enzyme)
chain: VVGGTDADEGEWPWQVSLHALGHGHSCGASLISPNWLVSAAHCYIDTRGSRWSDPTQWTAFLGLHDQSQRSAPGVQERRLKRIISHPFFNKGVTLDYDIALLELEKPAEYSSMVRPISLPDASHVFPAGKAIWVTGWGHTQYGGTHALILQKGEIRVINQTTCENLLPQLITPRMMCVGFLSGGVDSCDGDSGGPLSSVEADGRIFQAGVVSWGDGCAQRNKPGVYTRLPLFRDWIKENTGV
B4: MTSP-1 protease domain I41S/Y59F/ins97aV/C122S/G187D/Q192V/D217V (enzyme)
chain: VVGGTDADEGEWPWQVSLHALGQGHSCGASLISPNWLVSAAHCFIDDRGFRYSDPTQWTAFLGLHDQSQRSAPGVQERRLKRIISHPFFNDFVTFDYDIALLELEKPAEYSSMVRPISLPDASHVFPAGKAIWVTGWGHTQYGGTGALILQKGEIRVINQTTCENLLPQQITPRMMCVGFLSGDVDSCVGDSGGPLSSVEADGRIFQAGVVSWGVGCAQRNKPGVYTRLPLFRDWIKENTGV
B5: MTSP-1 protease domain Q38H/I41S/D96K/ins97aD/C122S/G151N/Q192S (enzyme)
chain: VVGGTDADEGEWPWQVSLHALGHGHSCGASLISPNWLVSAAHCYIDDRGFRYSDPTQWTAFLGLHDQSQRSAPGVQERRLKRIISHPFFNKFDTFDYDIALLELEKPAEYSSMVRPISLPDASHVFPAGKAIWVTGWGHTQYGGTNALILQKGEIRVINQTTCENLLPQQITPRMMCVGFLSGGVDSCSGDSGGPLSSVEADGRIFQAGVVSWGDGCAQRNKPGVYTRLPLFRDWIKENTGV
B6: MTSP-1 protease domain I41S/D96E/ins97aG/C122S/G151Q/Q192A (enzyme)
chain: VVGGTDADEGEWPWQVSLHALGQGHSCGASLISPNWLVSAAHCYIDDRGFRYSDPTQWTAFLGLHDQSQRSAPGVQERRLKRIISHPFFNEFGTFDYDIALLELEKPAEYSSMVRPISLPDASHVFPAGKAIWVTGWGHTQYGGTQALILQKGEIRVINQTTCENLLPQQITPRMMCVGFLSGGVDSCAGDSGGPLSSVEADGRIFQAGVVSWGDGCAQRNKPGVYTRLPLFRDWIKENTGV
B7: MTSP-1 protease domain I41S/ins97aV/C122S/Q192G/Q209L (enzyme)
chain: VVGGTDADEGEWPWQVSLHALGQGHSCGASLISPNWLVSAAHCYIDDRGFRYSDPTQWTAFLGLHDQSQRSAPGVQERRLKRIISHPFFNDFVTFDYDIALLELEKPAEYSSMVRPISLPDASHVFPAGKAIWVTGWGHTQYGGTGALILQKGEIRVINQTTCENLLPQQITPRMMCVGFLSGGVDSCGGDSGGPLSSVEADGRIFLAGVVSWGDGCAQRNKPGVYTRLPLFRDWIKENTGV
B8: MTSP-1 protease domain I41S/Y59F/ins97aV/C122S/Q192G (enzyme)
chain: VVGGTDADEGEWPWQVSLHALGQGHSCGASLISPNWLVSAAHCFIDDRGFRYSDPTQWTAFLGLHDQSQRSAPGVQERRLKRIISHPFFNDFVTFDYDIALLELEKPAEYSSMVRPISLPDASHVFPAGKAIWVTGWGHTQYGGTGALILQKGEIRVINQTTCENLLPQQITPRMMCVGFLSGGVDSCGGDSGGPLSSVEADGRIFQAGVVSWGDGCAQRNKPGVYTRLPLFRDWIKENTGV
B9: MTSP-1 protease domain I41S/S90T/ins97aV/C122S/Q192V/D217V (enzyme)
chain: VVGGTDADEGEWPWQVSLHALGQGHSCGASLISPNWLVSAAHCYIDDRGFRYSDPTQWTAFLGLHDQSQRSAPGVQERRLKRIITHPFFNDFVTFDYDIALLELEKPAEYSSMVRPISLPDASHVFPAGKAIWVTGWGHTQYGGTGALILQKGEIRVINQTTCENLLPQQITPRMMCVGFLSGGVDSCVGDSGGPLSSVEADGRIFQAGVVSWGVGCAQRNKPGVYTRLPLFRDWIKENTGV
B10: MTSP-1 protease domain Q38H/I41S/ins97aV/A112V/C122S/Q192A/Q209L (enzyme)
chain: VVGGTDADEGEWPWQVSLHALGHGHSCGASLISPNWLVSAAHCYIDDRGFRYSDPTQWTAFLGLHDQSQRSAPGVQERRLKRIISHPFFNDFVTFDYDIALLELEKPVEYSSMVRPISLPDASHVFPAGKAIWVTGWGHTQYGGTGALILQKGEIRVINQTTCENLLPQQITPRMMCVGFLSGGVDSCAGDSGGPLSSVEADGRIFLAGVVSWGDGCAQRNKPGVYTRLPLFRDWIKENTGV
B11: MTSP-1 protease domain I41S/S90P/ins97aV/C122S/Y146E/Q192N/D217V (enzyme)
chain: VVGGTDADEGEWPWQVSLHALGQGHSCGASLISPNWLVSAAHCYIDDRGFRYSDPTQWTAFLGLHDQSQRSAPGVQERRLKRIIPHPFFNDFVTFDYDIALLELEKPAEYSSMVRPISLPDASHVFPAGKAIWVTGWGHTQEGGTGALILQKGEIRVINQTTCENLLPQQITPRMMCVGFLSGGVDSCNGDSGGPLSSVEADGRIFQAGVVSWGVGCAQRNKPGVYTRLPLFRDWIKENTGV
B12: MTSP-1 protease domain I41S/S90T/ins97aV/C122S/Q192N/D217V (enzyme)
chain: VVGGTDADEGEWPWQVSLHALGQGHSCGASLISPNWLVSAAHCYIDDRGFRYSDPTQWTAFLGLHDQSQRSAPGVQERRLKRIITHPFFNDFVTFDYDIALLELEKPAEYSSMVRPISLPDASHVFPAGKAIWVTGWGHTQYGGTGALILQKGEIRVINQTTCENLLPQQITPRMMCVGFLSGGVDSCNGDSGGPLSSVEADGRIFQAGVVSWGVGCAQRNKPGVYTRLPLFRDWIKENTGV
B13: MTSP-1 protease domain I41S/F93L/ins97aV/C122S/Q192V/D217V (enzyme)
chain: VVGGTDADEGEWPWQVSLHALGQGHSCGASLISPNWLVSAAHCYIDDRGFRYSDPTQWTAFLGLHDQSQRSAPGVQERRLKRIISHPLFNDFVTFDYDIALLELEKPAEYSSMVRPISLPDASHVFPAGKAIWVTGWGHTQYGGTGALILQKGEIRVINQTTCENLLPQQITPRMMCVGFLSGGVDSCVGDSGGPLSSVEADGRIFQAGVVSWGVGCAQRNKPGVYTRLPLFRDWIKENTGV
B14: MTSP-1 Q38H/I41S/D60bT/F60eS/Y60gW/D96K/F97G/T98P/F99L/C122S/G151H/Q175L/Q192D (enzyme)
chain: VVGGTDADEGEWPWQVSLHALGHGHSCGASLISPNWLVSAAHCYIDTRGSRWSDPTQWTAFLGLHDQSQRSAPGVQERRLKRIISHPFFNKGPLDYDIALLELEKPAEYSSMVRPISLPDASHVFPAGKAIWVTGWGHTQYGGTHALILQKGEIRVINQTTCENLLPQLITPRMMCVGFLSGGVDSCDGDSGGPLSSVEADGRIFQAGVVSWGDGCAQRNKPGVYTRLPLFRDWIKENTGV
B15: MTSP-1 protease domain A35V/I41S/Y59F/C122S/Q192D/D217V (enzyme)
chain: VVGGTDADEGEWPWQVSLHVLGQGHSCGASLISPNWLVSAAHCFIDDRGFRYSDPTQWTAFLGLHDQSQRSAPGVQERRLKRIISHPFFNDFTFDYDIALLELEKPAEYSSMVRPISLPDASHVFPAGKAIWVTGWGHTQYGGTGALILQKGEIRVINQTTCENLLPQQITPRMMCVGFLSGGVDSCDGDSGGPLSSVEADGRIFQAGVVSWGVGCAQRNKPGVYTRLPLFRDWIKENTGV

What follows are binders tested against plasma purified human complement protein C3 (human) (UniProt P01024) (assay: cell-based or functional assay).
Chain of plasma purified human complement protein C3 (human) (P01024 23-667, chain 1 of 2): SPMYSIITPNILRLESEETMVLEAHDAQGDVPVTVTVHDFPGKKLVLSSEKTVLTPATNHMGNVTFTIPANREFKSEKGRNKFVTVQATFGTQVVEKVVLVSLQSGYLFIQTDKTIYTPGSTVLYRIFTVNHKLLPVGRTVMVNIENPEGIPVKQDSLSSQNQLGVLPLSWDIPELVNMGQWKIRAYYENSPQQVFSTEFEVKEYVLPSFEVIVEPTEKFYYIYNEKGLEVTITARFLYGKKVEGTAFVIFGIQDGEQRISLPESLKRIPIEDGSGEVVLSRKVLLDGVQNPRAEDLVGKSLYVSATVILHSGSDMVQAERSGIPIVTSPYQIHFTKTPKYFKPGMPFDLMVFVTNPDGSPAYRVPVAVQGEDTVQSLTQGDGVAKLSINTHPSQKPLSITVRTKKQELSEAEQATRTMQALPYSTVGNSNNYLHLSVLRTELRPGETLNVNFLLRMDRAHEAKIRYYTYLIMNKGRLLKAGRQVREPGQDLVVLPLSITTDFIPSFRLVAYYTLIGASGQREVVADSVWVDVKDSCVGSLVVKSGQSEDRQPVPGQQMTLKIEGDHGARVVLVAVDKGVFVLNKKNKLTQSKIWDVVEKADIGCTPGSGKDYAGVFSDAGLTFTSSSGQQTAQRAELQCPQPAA
Chain of plasma purified human complement protein C3 (human) (P01024 672-1663, chain 2 of 2): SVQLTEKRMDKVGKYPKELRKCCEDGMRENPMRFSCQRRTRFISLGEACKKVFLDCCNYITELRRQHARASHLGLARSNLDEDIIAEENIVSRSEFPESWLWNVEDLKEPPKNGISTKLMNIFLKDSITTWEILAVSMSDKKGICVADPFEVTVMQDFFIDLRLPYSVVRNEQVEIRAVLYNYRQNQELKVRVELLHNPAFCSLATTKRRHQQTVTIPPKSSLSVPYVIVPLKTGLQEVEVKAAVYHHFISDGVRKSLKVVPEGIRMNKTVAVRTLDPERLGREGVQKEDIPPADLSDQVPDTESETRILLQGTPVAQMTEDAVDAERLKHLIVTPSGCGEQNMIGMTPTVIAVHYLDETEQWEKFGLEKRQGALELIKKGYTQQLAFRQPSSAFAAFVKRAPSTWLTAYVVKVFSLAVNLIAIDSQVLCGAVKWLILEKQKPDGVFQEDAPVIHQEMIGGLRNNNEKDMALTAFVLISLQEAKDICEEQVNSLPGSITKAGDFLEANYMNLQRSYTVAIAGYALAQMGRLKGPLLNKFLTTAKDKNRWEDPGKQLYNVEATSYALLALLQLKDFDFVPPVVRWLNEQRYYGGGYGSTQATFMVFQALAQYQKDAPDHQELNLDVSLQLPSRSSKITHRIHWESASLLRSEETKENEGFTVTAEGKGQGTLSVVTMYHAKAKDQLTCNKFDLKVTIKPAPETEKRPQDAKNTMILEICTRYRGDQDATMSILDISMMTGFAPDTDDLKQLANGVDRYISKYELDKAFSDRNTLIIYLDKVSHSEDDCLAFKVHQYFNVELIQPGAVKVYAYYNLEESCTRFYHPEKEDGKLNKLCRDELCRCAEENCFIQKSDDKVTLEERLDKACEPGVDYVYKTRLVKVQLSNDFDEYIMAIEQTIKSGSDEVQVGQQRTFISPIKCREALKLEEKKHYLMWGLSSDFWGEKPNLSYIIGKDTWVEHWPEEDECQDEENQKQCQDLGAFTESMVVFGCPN
In the case of B1, the EC50 hC3 cleavage is reported as 34.6 nM.
Binder B2 has an EC50 hC3 cleavage of 8.22 nM.
For B3, the EC50 of hC3 cleavage was 9.83 nM.
Work on B4 yielded an EC50 hC3 cleavage of 8.35 nM.
B5 gave an EC50 hC3 cleavage of 26.8 nM.
In the case of B6, the EC50 hC3 cleavage is reported as 44.4 nM.
In the case of B7, the EC50 hC3 cleavage is reported as 33.4 nM.
Work on B8 yielded an EC50 hC3 cleavage of 25.6 nM.
B9 showed an EC50 hC3 cleavage of 10.5 nM.
Binder B10 has an EC50 hC3 cleavage of 10.9 nM.
Binder B11 has an EC50 hC3 cleavage of 6.47 nM.
Work on B12 yielded an EC50 hC3 cleavage of 13.4 nM.
Work on B13 yielded an EC50 hC3 cleavage of 9.82 nM.
Binder B14 has an EC50 of hC3 cleavage of 7.88 nM.
B15 gave an EC50 hC3 cleavage of 39.8 nM.
